The text below walks through data of US20130164281A1 (SAMSUNG ELECTRONICS, published 2013).

This assay deals with T1, human c-Met/Fc fusion protein (R&D Systems) (human, UniProt P08581 25-932).
T1 construct: Bought reagent; also called c-Met/Fc chimera (R&D Systems Cat. No. 358-MT/CF); not shown: Fc part of the bought fusion
Nature of the assay: competition ELISA on coated c-Met/Fc; competitor biotinylated chAbF46 (0.1 ug/ml). The protocol: The antigens were coated by overnight incubation at a temperature of 4° C. using Nunc Immuno MaxiSort 96 well flat bottom microtiter plate (Fisher Cat. No. DIS-971-030J) and 1.0 μg/ml and 100 μl/well of c-Met/Fc chimera (R&D Systems Cat. No. 358-MT/CF). chAbF46 and 20 humanized antibodies were diluted and at a concentration of 10 μg/ml to 0.078 μg/ml, they were mixed with biotinylated chAbF46 (0.1 μg/ml, final conc.), followed by incubation at a temperature of 37° C. for 2 hours. The amount of biotinylated chAbF46 antibody binding to the antigen was measured using streptavidin-HRP (Sigma cat. No S5512) and an OPD substrate (Sigma Cat. No. P9187), and IC50 data were calculated from the results and the data are shown in Table 1 below (all units in nM).

T1 sequence (P08581 25-932 limits assumed): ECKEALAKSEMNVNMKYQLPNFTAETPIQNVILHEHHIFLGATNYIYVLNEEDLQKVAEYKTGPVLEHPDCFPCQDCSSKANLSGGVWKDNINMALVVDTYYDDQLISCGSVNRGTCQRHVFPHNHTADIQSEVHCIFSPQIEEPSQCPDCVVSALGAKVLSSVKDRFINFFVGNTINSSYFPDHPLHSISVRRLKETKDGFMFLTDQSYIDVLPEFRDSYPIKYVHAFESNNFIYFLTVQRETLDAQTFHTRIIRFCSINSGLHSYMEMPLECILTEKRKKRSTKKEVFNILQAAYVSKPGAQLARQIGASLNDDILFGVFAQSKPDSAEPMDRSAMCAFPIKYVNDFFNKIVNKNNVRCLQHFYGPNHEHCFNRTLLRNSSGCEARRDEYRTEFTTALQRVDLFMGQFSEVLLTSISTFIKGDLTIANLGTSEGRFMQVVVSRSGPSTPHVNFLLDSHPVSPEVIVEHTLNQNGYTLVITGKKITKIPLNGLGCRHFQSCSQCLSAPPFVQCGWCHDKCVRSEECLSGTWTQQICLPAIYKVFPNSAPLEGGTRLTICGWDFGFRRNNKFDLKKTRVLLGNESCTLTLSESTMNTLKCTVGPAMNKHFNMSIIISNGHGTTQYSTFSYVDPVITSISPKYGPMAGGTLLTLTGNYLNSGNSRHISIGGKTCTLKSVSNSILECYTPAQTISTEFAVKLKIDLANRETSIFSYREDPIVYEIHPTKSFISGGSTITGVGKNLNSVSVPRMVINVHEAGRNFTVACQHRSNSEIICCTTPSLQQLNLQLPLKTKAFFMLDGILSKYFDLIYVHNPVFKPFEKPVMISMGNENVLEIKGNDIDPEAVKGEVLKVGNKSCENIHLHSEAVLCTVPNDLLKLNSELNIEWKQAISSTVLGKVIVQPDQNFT

B1: deimmunized humanized antibody huAbF46 including a combination of AT-VH3 and AT-Vk1 (antibody, IgG1, V domains shown)
VH: EVQLVESGGGLVQPGGSLRLSCATSGFTFTDYYMSWVRQPPGKGLEWLGFIRNKANGYTTEYSASVKGRFTISRDNSKSTLYLQMNSLRAEDTATYYCARDNWFAYWGQGTLVTVSS
VL: DILMTQSPSSLTASVGDRVTMTCKSSQSLLASGNQNNYLAWHQQKPGKAPKMLIIWASTRVSGVPDRFIGSGSGTDFTLTISSLQAEDVAVYYCQQSYSAPLTFGQGTKLEIK
notes: expressed from pANTVhG1 and pANTVk vectors (IgG1, kappa) in HEK293 cells; also called AT-VH3/AT-Vk1
As usually defined, the IC50 is the concentration that inhibits the measured activity by half. High values mean weaker potency in that assay, low ones greater potency in that assay. Molecule B1 returned an IC50 of 3.53 nM.

B2: deimmunized humanized antibody huAbF46 including a combination of AT-VH4 and AT-Vk4 (antibody, IgG1, V domains shown)
VH: EVQLVESGGGLVQPGGSLRLSCATSGFTFTDYYMSWVRQPPGKGLEWLGFIRNKANGYTTEYSASVKGRFTISRDNSKNTLYLQMNSLRAEDTATYYCARDNWFAYWGQGTLVTVSS
VL: DIQMTQSPSSLSASVGDRVTITCKSSQSLLASGNQNNYLAWHQQKPGKAPKMLIIWASTRVSGVPDRFSGSGSGTDFTLTISSLQAEDVAVYYCQQSYSAPLTFGQGTKLEIK
notes: expressed from pANTVhG1 and pANTVk vectors (IgG1, kappa) in HEK293 cells; also called AT-VH4/AT-Vk4
Take B2: the IC50 stood at 1.41 nM.

B3: deimmunized humanized antibody huAbF46 including a combination of AT-VH5 and AT-Vk1 (antibody, IgG1, V domains shown)
VH: EVQLVESGGGLVQPGGSLRLSCATSGFTFTDYYMSWVRQPPGKGLEWLGFIRNKANGYTTEYSASVKGRFTISRDNSKNTLYLQMNSLRAEDTAVYYCARDNWFAYWGQGTLVTVSS
VL: DILMTQSPSSLTASVGDRVTMTCKSSQSLLASGNQNNYLAWHQQKPGKAPKMLIIWASTRVSGVPDRFIGSGSGTDFTLTISSLQAEDVAVYYCQQSYSAPLTFGQGTKLEIK
notes: expressed from pANTVhG1 and pANTVk vectors (IgG1, kappa) in HEK293 cells; also called AT-VH5/AT-Vk1
In turn, B3 came in with an IC50 of 2.04 nM.

B4: deimmunized humanized antibody huAbF46 including a combination of AT-VH5 and AT-Vk2 (antibody, IgG1, V domains shown)
VH: EVQLVESGGGLVQPGGSLRLSCATSGFTFTDYYMSWVRQPPGKGLEWLGFIRNKANGYTTEYSASVKGRFTISRDNSKNTLYLQMNSLRAEDTAVYYCARDNWFAYWGQGTLVTVSS
VL: DILMTQSPSSLSASVGDRVTITCKSSQSLLASGNQNNYLAWHQQKPGKAPKMLIIWASTRVSGVPDRFIGSGSGTDFTLTISSLQAEDVAVYYCQQSYSAPLTFGQGTKLEIK
notes: expressed from pANTVhG1 and pANTVk vectors (IgG1, kappa) in HEK293 cells; also called AT-VH5/AT-Vk2
B4 came in with an IC50 of 1.46 nM.

B5: deimmunized humanized antibody huAbF46 including a combination of AT-VH5 and AT-Vk4 (antibody, IgG1, V domains shown)
VH: EVQLVESGGGLVQPGGSLRLSCATSGFTFTDYYMSWVRQPPGKGLEWLGFIRNKANGYTTEYSASVKGRFTISRDNSKNTLYLQMNSLRAEDTAVYYCARDNWFAYWGQGTLVTVSS
VL: DIQMTQSPSSLSASVGDRVTITCKSSQSLLASGNQNNYLAWHQQKPGKAPKMLIIWASTRVSGVPDRFSGSGSGTDFTLTISSLQAEDVAVYYCQQSYSAPLTFGQGTKLEIK
notes: expressed from pANTVhG1 and pANTVk vectors (IgG1, kappa) in HEK293 cells; also called AT-VH5/AT-Vk4
In turn, B5 returned an IC50 of 1.62 nM.

B6: deimmunized humanized antibody huAbF46 including a combination of AT-VH4 and AT-Vk1 (antibody, IgG1, V domains shown)
VH: EVQLVESGGGLVQPGGSLRLSCATSGFTFTDYYMSWVRQPPGKGLEWLGFIRNKANGYTTEYSASVKGRFTISRDNSKNTLYLQMNSLRAEDTATYYCARDNWFAYWGQGTLVTVSS
VL: DILMTQSPSSLTASVGDRVTMTCKSSQSLLASGNQNNYLAWHQQKPGKAPKMLIIWASTRVSGVPDRFIGSGSGTDFTLTISSLQAEDVAVYYCQQSYSAPLTFGQGTKLEIK
notes: expressed from pANTVhG1 and pANTVk vectors (IgG1, kappa) in HEK293 cells; also called AT-VH4/AT-Vk1
Consider B6, for which the IC50 is 2.4 nM.

B7: deimmunized humanized antibody huAbF46 including a combination of AT-VH1 and AT-Vk4 (antibody, IgG1, V domains shown)
VH: EVKLVESGGGLVQPGGSLRLSCATSGFTFTDYYMSWVRQPPGKGLEWLGFIRNKANGYTTEYSASVKGRFTISRDNSKSTLYLQMNSLRAEDSATYYCARDNWFAYWGQGTLVTVSS
VL: DIQMTQSPSSLSASVGDRVTITCKSSQSLLASGNQNNYLAWHQQKPGKAPKMLIIWASTRVSGVPDRFSGSGSGTDFTLTISSLQAEDVAVYYCQQSYSAPLTFGQGTKLEIK
notes: expressed from pANTVhG1 and pANTVk vectors (IgG1, kappa) in HEK293 cells; also called AT-VH1/AT-Vk4
With B7, the IC50 turned out to be 1.51 nM.

B8: deimmunized humanized antibody huAbF46 including a combination of AT-VH2 and AT-Vk1 (antibody, IgG1, V domains shown)
VH: EVKLVESGGGLVQPGGSLRLSCATSGFTFTDYYMSWVRQPPGKGLEWLGFIRNKANGYTTEYSASVKGRFTISRDNSKSTLYLQMNSLRAEDTATYYCARDNWFAYWGQGTLVTVSS
VL: DILMTQSPSSLTASVGDRVTMTCKSSQSLLASGNQNNYLAWHQQKPGKAPKMLIIWASTRVSGVPDRFIGSGSGTDFTLTISSLQAEDVAVYYCQQSYSAPLTFGQGTKLEIK
notes: expressed from pANTVhG1 and pANTVk vectors (IgG1, kappa) in HEK293 cells; also called AT-VH2/AT-Vk1
The molecule B8 registered a 50% inhibitory concentration (IC50) of 2.3 nM.

B9: deimmunized humanized antibody huAbF46 including a combination of AT-VH4 and AT-Vk3 (antibody, IgG1, V domains shown)
VH: EVQLVESGGGLVQPGGSLRLSCATSGFTFTDYYMSWVRQPPGKGLEWLGFIRNKANGYTTEYSASVKGRFTISRDNSKNTLYLQMNSLRAEDTATYYCARDNWFAYWGQGTLVTVSS
VL: DIQMTQSPSSLSASVGDRVTITCKSSQSLLASGNQNNYLAWHQQKPGKAPKMLIIWASTRVSGVPDRFIGSGSGTDFTLTISSLQAEDVAVYYCQQSYSAPLTFGQGTKLEIK
notes: expressed from pANTVhG1 and pANTVk vectors (IgG1, kappa) in HEK293 cells; also called AT-VH4/AT-Vk3
B9 displayed an IC50 of 1.99 nM.

B10: deimmunized humanized antibody huAbF46 including a combination of AT-VH2 and AT-Vk3 (antibody, IgG1, V domains shown)
VH: EVKLVESGGGLVQPGGSLRLSCATSGFTFTDYYMSWVRQPPGKGLEWLGFIRNKANGYTTEYSASVKGRFTISRDNSKSTLYLQMNSLRAEDTATYYCARDNWFAYWGQGTLVTVSS
VL: DIQMTQSPSSLSASVGDRVTITCKSSQSLLASGNQNNYLAWHQQKPGKAPKMLIIWASTRVSGVPDRFIGSGSGTDFTLTISSLQAEDVAVYYCQQSYSAPLTFGQGTKLEIK
notes: expressed from pANTVhG1 and pANTVk vectors (IgG1, kappa) in HEK293 cells; also called AT-VH2/AT-Vk3
Molecule B10 yielded an IC50 of 1.69 nM.
